This is an account of results in patent publication EP2096121A1 (Institut Pasteur Of Shanghai, dated 2009).

In test [1] the target is HIV-1 envelope pDOL (subtype B) (HIV-1 (subtype B)). Briefly: cell-based or functional assay.
Test [2] concerns the target HIV-1 envelope Q168 (subtype A) (HIV-1 (subtype A)). Briefly: cell-based or functional assay.

B1: GPI-scFv (TG15): scFv/hinge/his-tag/DAF, anti-HIV-1 gp41 single-chain Fv derived from human monoclonal antibody TG15, GPI-anchored (scFv)
scFv: QVQLQQWGAGLLKPSETLSLTCAVYGDSFGGHHWSWIRQPPGKGLEWIGEINFLGNTNYNPSLKSRVAISKDTSKNQFSLTLNSATAADTAVYFCARRETMETASRKRAFDIWGQGTMETVTVSAGGGGSGGGGSGGGGSAELMETTQSPPTLSASVGDRVTITCRASQSLSGWVAWYQQKPGKAPKLLIYKASTLESGVPSRFSGSGSGTVFALTISSLQPDDSATYYCQQHSAFSSTFGQGTKLEIKRTPLGDTTHTSGHHHHHHGSGTTSGTTRLLSGHTCFTLTGLLGTLVTMETGLLT
In the case of B1, the “relative luciferase activity (RLA), single-cycle pseudotype infectivity, CEMss-GPI-scFv compared to CEMss-eGFP” value in test [1] was 8 fold reduction; in test [2] it was 180 fold reduction.
